In this experiment the target is UDP-N-acetylglucosamine-peptide N-acetylglucosaminyltransferase (mouse (endogenous in MEFs)) (UniProt Q8CGY8). Briefly: co-IP; data not shown: share of HCF1 of the MEF lysate that is enriched by immunoprecipitation of endogenous OGT.
Sequence of UniProt Q8CGY8 (Q8CGY8 whole entry): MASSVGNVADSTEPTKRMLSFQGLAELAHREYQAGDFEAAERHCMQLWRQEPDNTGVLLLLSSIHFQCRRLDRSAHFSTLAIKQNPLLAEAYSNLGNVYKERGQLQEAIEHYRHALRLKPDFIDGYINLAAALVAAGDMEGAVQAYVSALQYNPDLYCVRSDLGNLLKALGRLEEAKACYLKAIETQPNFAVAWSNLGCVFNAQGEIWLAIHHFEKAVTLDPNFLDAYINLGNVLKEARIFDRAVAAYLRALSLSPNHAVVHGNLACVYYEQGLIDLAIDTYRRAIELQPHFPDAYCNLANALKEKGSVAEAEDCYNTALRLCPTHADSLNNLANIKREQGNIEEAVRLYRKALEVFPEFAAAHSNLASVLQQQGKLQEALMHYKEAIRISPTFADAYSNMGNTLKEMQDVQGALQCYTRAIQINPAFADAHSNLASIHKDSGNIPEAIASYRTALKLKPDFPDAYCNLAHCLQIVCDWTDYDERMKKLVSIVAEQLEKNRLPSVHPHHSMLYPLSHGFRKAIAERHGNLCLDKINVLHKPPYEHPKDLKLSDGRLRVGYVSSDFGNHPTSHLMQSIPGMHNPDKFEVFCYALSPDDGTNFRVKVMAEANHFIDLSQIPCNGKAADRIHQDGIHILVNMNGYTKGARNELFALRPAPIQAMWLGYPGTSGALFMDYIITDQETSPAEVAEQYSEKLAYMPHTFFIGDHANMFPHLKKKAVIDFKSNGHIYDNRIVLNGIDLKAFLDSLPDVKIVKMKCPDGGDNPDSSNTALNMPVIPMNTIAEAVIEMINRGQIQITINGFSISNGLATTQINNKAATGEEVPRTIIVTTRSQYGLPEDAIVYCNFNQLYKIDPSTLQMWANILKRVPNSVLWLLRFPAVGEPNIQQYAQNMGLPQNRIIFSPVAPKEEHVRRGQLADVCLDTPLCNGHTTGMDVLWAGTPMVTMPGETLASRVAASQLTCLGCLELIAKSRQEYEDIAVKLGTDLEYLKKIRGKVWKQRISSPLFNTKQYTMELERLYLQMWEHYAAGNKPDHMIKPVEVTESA

In turn, “Host cell factor 1 precursor, Q61191 1-2045” yielded a percent of FL HCF1 enriched by OGT immunoprecipitation of 80 to 90%.
